Results as given in patent US20200283521A1 (GRANULAR THERAPEUTICS, published 2020).
Read-outs that look alike come from different tables or passages of the source. Each block holds one binder with its values, some of them ahead of it.

How the values were obtained:
[1] = molecular target: T1, cynomolgus monkey C-KIT-Fc (cynomolgus monkey); experiment: HTRF competition vs Tb-h37M IgG1
T1 construct: also called cyno C-KIT-Fc
Method: Reagents were added sequentially into 384-well low-volume black plates (Nunc).

[2] = molecular target: T2, hDR3-Fc (human, UniProt Q93038); experiment: direct ELISA on coated protein, IgG1
T2 construct: Fc fusion; member of the panel m9
T2 sequence (looked up): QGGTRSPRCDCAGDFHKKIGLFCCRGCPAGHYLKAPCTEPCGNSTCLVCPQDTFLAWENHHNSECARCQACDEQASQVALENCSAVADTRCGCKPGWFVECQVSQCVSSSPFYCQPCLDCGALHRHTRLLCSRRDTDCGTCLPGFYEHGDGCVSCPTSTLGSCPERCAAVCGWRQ

[3] = molecular target: T3, hICAM-1-Fc (human, UniProt P05362); experiment: direct ELISA on coated protein, IgG1
T3 construct: Fc fusion; member of the panel m9

[4] = molecular target: T4, hLTBR-Fc (human, UniProt P36941); experiment: direct ELISA on coated protein, IgG1
T4 construct: Fc fusion; member of the panel m9

[5] = molecular target: T5, hCD4 (human, UniProt P01730); experiment: direct ELISA on coated protein, IgG1
T5 construct: purified recombinant protein; member of the panel m9

[6] = molecular target: T6, hVCAM-Fc; experiment: direct ELISA on coated protein, IgG1
T6 construct: member of the panel m9
T6 chain: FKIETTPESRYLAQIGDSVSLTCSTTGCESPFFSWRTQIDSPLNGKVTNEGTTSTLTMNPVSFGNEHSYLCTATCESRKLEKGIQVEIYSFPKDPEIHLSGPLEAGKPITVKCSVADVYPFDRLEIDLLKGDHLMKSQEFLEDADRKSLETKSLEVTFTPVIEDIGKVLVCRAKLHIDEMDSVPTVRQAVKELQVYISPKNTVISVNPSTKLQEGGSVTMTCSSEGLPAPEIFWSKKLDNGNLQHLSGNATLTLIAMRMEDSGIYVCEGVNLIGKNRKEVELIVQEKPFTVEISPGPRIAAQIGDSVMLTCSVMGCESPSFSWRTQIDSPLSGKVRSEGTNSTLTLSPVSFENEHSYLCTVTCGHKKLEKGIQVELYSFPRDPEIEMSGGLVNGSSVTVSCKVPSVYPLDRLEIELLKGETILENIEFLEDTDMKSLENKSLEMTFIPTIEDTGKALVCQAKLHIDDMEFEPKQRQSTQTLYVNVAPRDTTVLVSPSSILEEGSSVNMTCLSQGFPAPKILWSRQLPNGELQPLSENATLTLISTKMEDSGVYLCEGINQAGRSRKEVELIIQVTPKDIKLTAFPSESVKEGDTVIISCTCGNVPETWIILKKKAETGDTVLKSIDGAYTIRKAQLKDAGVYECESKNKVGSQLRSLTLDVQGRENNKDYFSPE

[7] = molecular target: T7, hVCAM-1 (human, UniProt P19320); experiment: direct ELISA on coated protein, IgG1
T7 construct: purified recombinant protein; member of the panel m9
T7 sequence (looked up): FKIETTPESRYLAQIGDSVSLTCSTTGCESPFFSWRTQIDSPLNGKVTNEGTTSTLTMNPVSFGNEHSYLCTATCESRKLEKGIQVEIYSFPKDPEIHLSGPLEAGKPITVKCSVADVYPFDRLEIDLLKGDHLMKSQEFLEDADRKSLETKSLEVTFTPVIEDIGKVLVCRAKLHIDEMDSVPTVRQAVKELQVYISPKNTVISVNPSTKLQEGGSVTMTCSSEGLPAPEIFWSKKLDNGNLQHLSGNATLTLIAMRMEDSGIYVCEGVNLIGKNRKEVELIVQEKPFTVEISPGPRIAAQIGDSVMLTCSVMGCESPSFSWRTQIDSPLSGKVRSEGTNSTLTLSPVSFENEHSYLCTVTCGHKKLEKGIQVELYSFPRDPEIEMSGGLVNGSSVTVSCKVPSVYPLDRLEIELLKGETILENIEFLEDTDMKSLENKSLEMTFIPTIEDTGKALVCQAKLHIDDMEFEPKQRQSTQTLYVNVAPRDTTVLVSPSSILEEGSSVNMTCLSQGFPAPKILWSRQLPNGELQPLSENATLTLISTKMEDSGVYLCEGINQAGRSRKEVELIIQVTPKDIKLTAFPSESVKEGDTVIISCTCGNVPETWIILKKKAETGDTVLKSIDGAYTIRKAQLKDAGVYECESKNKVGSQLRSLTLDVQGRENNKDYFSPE

[8] = molecular target: T8, hBAFFR-Fc (human, UniProt Q96RJ3); experiment: direct ELISA on coated protein, IgG1
T8 construct: Fc fusion; member of the panel m9

[9] = molecular target: T9, hOX40-Fc; experiment: direct ELISA on coated protein, IgG1
T9 construct: member of the panel m9
T9 chain: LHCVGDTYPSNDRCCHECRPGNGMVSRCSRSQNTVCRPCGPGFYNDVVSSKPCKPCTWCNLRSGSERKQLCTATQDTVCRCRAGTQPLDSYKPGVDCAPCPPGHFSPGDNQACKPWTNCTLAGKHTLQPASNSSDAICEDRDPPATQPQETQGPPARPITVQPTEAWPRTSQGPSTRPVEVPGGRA

[10] = molecular target: T10, hEpCAM-Fc (human, UniProt P16422); experiment: direct ELISA on coated protein, IgG1
T10 construct: Fc fusion; member of the panel m9
T10 sequence (looked up): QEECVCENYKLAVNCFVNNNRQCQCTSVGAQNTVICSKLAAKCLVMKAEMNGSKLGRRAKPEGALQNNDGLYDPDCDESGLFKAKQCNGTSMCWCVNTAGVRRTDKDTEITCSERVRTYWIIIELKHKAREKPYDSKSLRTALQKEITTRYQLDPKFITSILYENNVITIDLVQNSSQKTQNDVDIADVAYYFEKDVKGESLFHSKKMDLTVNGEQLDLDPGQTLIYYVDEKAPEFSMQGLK

[11] = molecular target: T4, hLTBR-Fc; experiment: direct ELISA on coated protein, IgG1; remark: listed apart in the source
[12] = molecular target: T11, hDR6-Fc (human, UniProt O75509); experiment: direct ELISA on coated protein, IgG1
T11 construct: Fc fusion; member of the panel m9
T11 sequence (looked up): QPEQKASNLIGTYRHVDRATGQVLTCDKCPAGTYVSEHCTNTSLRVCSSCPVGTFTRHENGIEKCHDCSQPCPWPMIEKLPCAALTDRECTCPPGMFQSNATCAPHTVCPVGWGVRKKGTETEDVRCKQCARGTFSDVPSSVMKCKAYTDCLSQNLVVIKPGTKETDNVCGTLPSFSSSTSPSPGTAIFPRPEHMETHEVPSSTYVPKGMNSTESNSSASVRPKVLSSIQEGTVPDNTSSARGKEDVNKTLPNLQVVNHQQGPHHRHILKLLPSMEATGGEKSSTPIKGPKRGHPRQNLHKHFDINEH

T4 sequence (P36941 28-227 limits assumed): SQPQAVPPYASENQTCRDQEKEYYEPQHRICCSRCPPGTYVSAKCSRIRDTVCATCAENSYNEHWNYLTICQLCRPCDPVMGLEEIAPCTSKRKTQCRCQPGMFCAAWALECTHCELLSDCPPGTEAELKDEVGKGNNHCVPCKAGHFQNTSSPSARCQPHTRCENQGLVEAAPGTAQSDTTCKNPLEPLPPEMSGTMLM
T8 sequence (Q96RJ3 7-71 limits assumed): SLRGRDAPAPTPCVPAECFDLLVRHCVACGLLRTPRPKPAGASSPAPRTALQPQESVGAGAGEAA
T3 sequence (P05362 28-480 limits assumed): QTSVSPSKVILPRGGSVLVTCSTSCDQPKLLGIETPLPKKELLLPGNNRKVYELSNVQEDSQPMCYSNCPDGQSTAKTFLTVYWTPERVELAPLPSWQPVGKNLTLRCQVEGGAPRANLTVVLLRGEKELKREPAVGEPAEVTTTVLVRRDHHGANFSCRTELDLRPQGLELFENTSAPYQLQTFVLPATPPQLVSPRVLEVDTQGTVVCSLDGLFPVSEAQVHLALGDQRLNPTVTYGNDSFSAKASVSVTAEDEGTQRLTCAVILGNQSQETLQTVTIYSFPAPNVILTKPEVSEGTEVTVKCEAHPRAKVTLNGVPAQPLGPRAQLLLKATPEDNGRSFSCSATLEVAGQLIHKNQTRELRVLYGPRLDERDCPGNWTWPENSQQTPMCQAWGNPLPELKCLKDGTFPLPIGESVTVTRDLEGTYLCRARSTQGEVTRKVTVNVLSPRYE

IC50 [1]: 0.036 µg/mL
B1: MH5, human IgG1 (antibody, V domains shown)
VH: QVQLVQSGAEVKKPGASVKVSCKASGYTFTDYYMNWVRQAPGQGLEWMGRIYPGSGNTYYAQKFQGRVTMTRDTSTSTVYMELSSLRSEDTAVYYCARGVYYYDYWGQGTLVTVSS
VL: DIQMTQSPSSLSASVGDRVTITCRASQGIRTNLAWFQQKPGKAPKSLIYSASSLQSGVPSRFSGSGSGTDFTLTISSLQPEDFATYYCQQYANYPRTFGGGTKVEIK
notes: IgG1; also called C-KIT-MH5; C-KIT-MHS

binding result [2]: no binding (tested: 1 µg/ml)
binding result [3]: no binding (tested: 1 µg/ml)
binding result [4]: no binding (tested: 1 µg/ml)
binding result [5]: no binding (tested: 1 µg/ml)
binding result [6]: no binding (tested: 1 µg/ml)
binding result [7]: no binding (tested: 1 µg/ml)
binding result [8]: no binding (tested: 1 µg/ml)
binding result [9]: no binding (tested: 1 µg/ml)
binding result [10]: no binding (tested: 1 µg/ml)
B2: MH1, human IgG1 (antibody, V domains shown)
VH: QVQLVQSGAEVKKPGASVKVSCKASGYTFTDYYMNWVRQAPGQGLEWMGRIYPGSGNTYYAQKFQGRVTMTRDTSTSTVYMELSSLRSEDTAVYYCARGVYYYDYWGQGTLVTVSS
VL: DIQMTQSPSSLSASVGDRVTITCRASQGIRTNLAWFQQKPGKAPKSLIYAASSLQSGVPSRFSGSGSGTDFTLTISSLQPEDFATYYCQQYNSYPRTFGGGTKVEIK
notes: IgG1; also called IgG1-MH1

binding result [11]: no binding (tested: 1 µg/ml)
binding result [12]: no binding (tested: 1 µg/ml)
B3: MH5.22 (antibody, IgG1, V domains shown)
VH: QVQLVQSGAEVKKPGASVKVSCKASGYTFTDFYMNWVRQAPGQGLEWMGRIYPASGNTYYAQKFQGRVTMTRDTSTSTVYMELSSLRSEDTAVYYCARGVWYYDYWGQGTLVTVSS
VL: DIQMTQSPSSLSASVGDRVTITCRASQGIRTNLAWFQQKPGKAPKSLIYAASSLQSGVPSRFSGSGSGTDFTLTISSLQPEDFATYYCQQYANYPRTFGGGTKVEIK
notes: IgG1; also called C-KIT-MH5.22
